Measured values as given in patent publication WO2011147762A2.

What was measured:
[1] = molecular target: ED-B fibronectin antigen protein (recombinant), bound to CNBr activated sepharose 4B (UniProt P02751); test: ED-B sepharose column, % of total radioactivity bound; Study A; sodium thiosulfate 50 mg/mL; day 5
[2] = molecular target: ED-B fibronectin antigen protein (recombinant), bound to CNBr activated sepharose 4B (UniProt P02751); test: ED-B sepharose column, % of total radioactivity bound; Study A; maltose 25 mg/mL; day 7
[3] = molecular target: ED-B fibronectin antigen protein (recombinant), bound to CNBr activated sepharose 4B (UniProt P02751); test: ED-B sepharose column, % of total radioactivity bound; Study A; maltose 50 mg/mL; day 7
[4] = molecular target: ED-B fibronectin antigen protein (recombinant), bound to CNBr activated sepharose 4B (UniProt P02751); test: ED-B sepharose column, % of total radioactivity bound; Study A; methionine 25 mg/mL; day 1
[5] = molecular target: ED-B fibronectin antigen protein (recombinant), bound to CNBr activated sepharose 4B (UniProt P02751); test: ED-B sepharose column, % of total radioactivity bound; Study B3; thioglycerol 10 mg/mL; day 5
[6] = molecular target: ED-B fibronectin antigen protein (recombinant), bound to CNBr activated sepharose 4B (UniProt P02751); test: ED-B sepharose column, % of total radioactivity bound; Study B3; ascorbic acid 25 mg/mL; day 5
[7] = molecular target: ED-B fibronectin antigen protein (recombinant), bound to CNBr activated sepharose 4B (UniProt P02751); test: ED-B sepharose column, % of total radioactivity bound; Study A; sodium thiosulfate 5 mg/mL; day 1
[8] = molecular target: ED-B fibronectin antigen protein (recombinant), bound to CNBr activated sepharose 4B (UniProt P02751); test: ED-B sepharose column, % of total radioactivity bound; Study A; maltose 10 mg/mL; day 0
[9] = molecular target: ED-B fibronectin antigen protein (recombinant), bound to CNBr activated sepharose 4B (UniProt P02751); test: ED-B sepharose column, % of total radioactivity bound; Study A; methionine 10 mg/mL; day 1
[10] = molecular target: ED-B fibronectin antigen protein (recombinant), bound to CNBr activated sepharose 4B (UniProt P02751); test: ED-B sepharose column, % of total radioactivity bound; Study A; trolox 5 mg/mL; day 5
[11] = molecular target: ED-B fibronectin antigen protein (recombinant), bound to CNBr activated sepharose 4B (UniProt P02751); test: ED-B sepharose column, % of total radioactivity bound; Study A; maltose 10 mg/mL; day 1
[12] = molecular target: ED-B fibronectin antigen protein (recombinant), bound to CNBr activated sepharose 4B (UniProt P02751); test: ED-B sepharose column, % of total radioactivity bound; Study A; methionine 10 mg/mL; day 3
[13] = molecular target: ED-B fibronectin antigen protein (recombinant), bound to CNBr activated sepharose 4B (UniProt P02751); test: ED-B sepharose column, % of total radioactivity bound; Study A; inositol 5 mg/mL; day 7
[14] = molecular target: ED-B fibronectin antigen protein (recombinant), bound to CNBr activated sepharose 4B (UniProt P02751); test: ED-B sepharose column, % of total radioactivity bound; Study A; sodium thiosulfate 50 mg/mL; day 0
[15] = molecular target: ED-B fibronectin antigen protein (recombinant), bound to CNBr activated sepharose 4B (UniProt P02751); test: ED-B sepharose column, % of total radioactivity bound; Study B3; no-excipient control (PBS); day 1
[16] = molecular target: ED-B fibronectin antigen protein (recombinant), bound to CNBr activated sepharose 4B (UniProt P02751); test: ED-B sepharose column, % of total radioactivity bound; Study B3; no-excipient control (PBS); day 7
[17] = molecular target: ED-B fibronectin antigen protein (recombinant), bound to CNBr activated sepharose 4B (UniProt P02751); test: ED-B sepharose column, % of total radioactivity bound; Study B3; human serum albumin 10 mg/mL; day 2
[18] = molecular target: ED-B fibronectin antigen protein (recombinant), bound to CNBr activated sepharose 4B (UniProt P02751); test: ED-B sepharose column, % of total radioactivity bound; Study B3; thioglycerol 10 mg/mL; day 7
[19] = molecular target: ED-B fibronectin antigen protein (recombinant), bound to CNBr activated sepharose 4B (UniProt P02751); test: ED-B sepharose column, % of total radioactivity bound; Study A; methionine 25 mg/mL; day 7
[20] = molecular target: ED-B fibronectin antigen protein (recombinant), bound to CNBr activated sepharose 4B (UniProt P02751); test: ED-B sepharose column, % of total radioactivity bound; Study B3; thioglycerol 10 mg/mL; day 0
[21] = molecular target: ED-B fibronectin antigen protein (recombinant), bound to CNBr activated sepharose 4B (UniProt P02751); test: ED-B sepharose column, % of total radioactivity bound; Study A; inositol 25 mg/mL; day 3
[22] = molecular target: ED-B fibronectin antigen protein (recombinant), bound to CNBr activated sepharose 4B (UniProt P02751); test: ED-B sepharose column, % of total radioactivity bound; Study B3; ascorbic acid 25 mg/mL; day 2
[23] = molecular target: ED-B fibronectin antigen protein (recombinant), bound to CNBr activated sepharose 4B (UniProt P02751); test: ED-B sepharose column, % of total radioactivity bound; Study A; sodium thiosulfate 10 mg/mL; day 1
[24] = molecular target: ED-B fibronectin antigen protein (recombinant), bound to CNBr activated sepharose 4B (UniProt P02751); test: ED-B sepharose column, % of total radioactivity bound; Study A; sodium thiosulfate 50 mg/mL; day 7
[25] = molecular target: ED-B fibronectin antigen protein (recombinant), bound to CNBr activated sepharose 4B (UniProt P02751); test: ED-B sepharose column, % of total radioactivity bound; Study A; sodium thiosulfate 25 mg/mL; day 7
[26] = molecular target: ED-B fibronectin antigen protein (recombinant), bound to CNBr activated sepharose 4B (UniProt P02751); test: ED-B sepharose column, % of total radioactivity bound; Study B3; human serum albumin 10 mg/mL; day 3
[27] = molecular target: ED-B fibronectin antigen protein (recombinant), bound to CNBr activated sepharose 4B (UniProt P02751); test: ED-B sepharose column, % of total radioactivity bound; Study B3; no-excipient control (PBS); day 5
[28] = molecular target: ED-B fibronectin antigen protein (recombinant), bound to CNBr activated sepharose 4B (UniProt P02751); test: ED-B sepharose column, % of total radioactivity bound; Study A; maltose 5 mg/mL; day 5

Chain of 131I L19-SIP (radioiodinated L19 SIP homodimer) (chain): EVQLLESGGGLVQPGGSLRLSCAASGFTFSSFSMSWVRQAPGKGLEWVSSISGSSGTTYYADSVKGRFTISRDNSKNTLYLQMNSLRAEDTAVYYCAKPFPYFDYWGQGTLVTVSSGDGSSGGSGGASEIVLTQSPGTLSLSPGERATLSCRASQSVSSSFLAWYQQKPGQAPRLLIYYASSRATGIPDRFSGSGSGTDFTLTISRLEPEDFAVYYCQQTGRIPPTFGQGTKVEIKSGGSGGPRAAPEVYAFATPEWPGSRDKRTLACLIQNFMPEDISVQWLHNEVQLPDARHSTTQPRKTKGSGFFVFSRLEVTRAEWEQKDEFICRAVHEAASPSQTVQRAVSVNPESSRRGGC
Chain of 131I L19-SIP (radioiodinated L19 SIP homodimer) (chain): as above
Chain of UniProt P02751 (P02751 1266-1356 limits assumed): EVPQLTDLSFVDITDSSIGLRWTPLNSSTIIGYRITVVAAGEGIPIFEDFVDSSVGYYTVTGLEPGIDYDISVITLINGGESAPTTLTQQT

Immunoreactivity (%) [1]: 91.5%
Immunoreactivity (%) [2]: 53.6%
Immunoreactivity (%) [3]: 50.7%
Immunoreactivity (%) [4]: 89.6%
Immunoreactivity (IR) (%) [5]: 46.8%
Immunoreactivity (IR) (%) [6]: 64.7%
Immunoreactivity (%) [7]: 94.4%
Immunoreactivity (%) [8]: 92.8%
Immunoreactivity (%) [9]: 88.1%
Immunoreactivity (%) [10]: 65.8%
Immunoreactivity (%) [11]: 85.4%
Immunoreactivity (%) [12]: 75.7%
Immunoreactivity (%) [13]: 56.2%
Immunoreactivity (%) [14]: 95.8%
Immunoreactivity (IR) (%) [15]: 73.2%
Immunoreactivity (IR) (%) [16]: 28.2%
Immunoreactivity (IR) (%) [17]: 59.9%
Immunoreactivity (IR) (%) [18]: 47.1%
Immunoreactivity (%) [19]: 58.9%
Immunoreactivity (IR) (%) [20]: 80.1%
Immunoreactivity (%) [21]: 68.5%
Immunoreactivity (IR) (%) [22]: 75%
Immunoreactivity (%) [23]: 94.7%
Immunoreactivity (%) [24]: 88.2%
Immunoreactivity (%) [25]: 78.5%
Immunoreactivity (IR) (%) [26]: 60.6%
Immunoreactivity (IR) (%) [27]: 56.4%
Immunoreactivity (%) [28]: 57%
Substance: 131I L19-SIP (radioiodinated L19 SIP homodimer)
